This assay deals with GHS-R (ghrelin receptor) expressed on CHO-K1 cells. The experiment in a line: cell-based or functional assay.
Chain of GHS-R (ghrelin receptor) expressed on CHO-K1 cells (Q92847 whole entry): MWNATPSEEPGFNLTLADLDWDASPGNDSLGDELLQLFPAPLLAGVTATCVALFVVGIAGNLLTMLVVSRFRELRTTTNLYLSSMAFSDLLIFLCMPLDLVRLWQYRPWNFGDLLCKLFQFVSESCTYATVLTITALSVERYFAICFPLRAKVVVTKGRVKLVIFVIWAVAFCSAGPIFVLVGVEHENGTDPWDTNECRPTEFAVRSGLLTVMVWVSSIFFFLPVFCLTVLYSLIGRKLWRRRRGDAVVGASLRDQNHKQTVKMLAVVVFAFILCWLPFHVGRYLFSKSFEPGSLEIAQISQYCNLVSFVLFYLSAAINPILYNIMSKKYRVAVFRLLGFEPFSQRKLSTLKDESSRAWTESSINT

B1: Vitamin D3-PEG-maleimide carrier-conjugated ghrelin from Example 3 (peptide)
peptide: GSSFLSPEHQKAQQRKESKKPPAKLQPRC
modifications: n-octanoyl on Ser 3; added C-terminal Cys conjugated through its thiol to the Vitamin D3-PEG(2 kDa)-maleimide carrier of Example 1
In the case of B1, the “EC50 of intracellular calcium flux (FLIPR, % activation) in GHS-R-expressing CHO-K1 cells” value was 85 nM.

Source of the values: patent US20150065420A1 (EXTEND BIOSCIENCES, published 2015).
